# T1: HpxO (Klebsiella pneumoniae, UniProt A6T923)
# T1 sequence (A6T923 1-384): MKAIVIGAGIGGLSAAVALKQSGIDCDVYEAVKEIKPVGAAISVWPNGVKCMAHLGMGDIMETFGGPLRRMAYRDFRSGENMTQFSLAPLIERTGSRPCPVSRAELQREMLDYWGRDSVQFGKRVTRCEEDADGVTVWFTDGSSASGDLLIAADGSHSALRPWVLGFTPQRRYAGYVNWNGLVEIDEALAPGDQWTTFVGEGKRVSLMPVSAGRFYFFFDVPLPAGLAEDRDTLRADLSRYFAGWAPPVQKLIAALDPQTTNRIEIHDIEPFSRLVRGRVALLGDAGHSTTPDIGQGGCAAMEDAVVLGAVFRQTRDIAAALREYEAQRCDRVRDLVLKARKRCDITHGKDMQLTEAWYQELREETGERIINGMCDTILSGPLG
# Experiments:
# HpxO = molecular target: T1, HpxO; experiment: steady-state rate against NADPH, no saturation; format: biochemical; details: read-out: Km,NADPH; urate as co-substrate; printed as lower limit
# purified protein = substrate: O=c1[nH]c(=O)c2[nH]c(=O)[nH]c2[nH]1; experiment: purified protein; format: biochemical, Klebsiella pneumoniae; details: NADH as co-substrate, saturating (1.5 mM)
molecule,measurement,setting,value
NC(=O)C1=CN([C@@H]2O[C@H](COP(=O)(O)OP(=O)(O)OC[C@H]3O[C@@H](n4cnc5c(N)ncnc54)[C@H](OP(=O)(O)O)[C@@H]3O)[C@@H](O)[C@H]2O)C=CC1 [NADPH],Km,HpxO,> 1000 µM
HpxO (Klebsiella pneumoniae subsp. pneumoniae MGH 78578) (protein) MKAIVIGAGIGGLSAAVALKQSGIDCDVYEAVKEIKPVGAAISVWPNGVKCMAHLGMGDIMETFGGPLRRMAYRDFRSGENMTQFSLAPLIERTGSRPCPVSRAELQREMLDYWGRDSVQFGKRVTRCEEDADGVTVWFTDGSSASGDLLIAADGSHSALRPWVLGFTPQRRYAGYVNWNGLVEIDEALAPGDQWTTFVGEGKRVSLMPVSAGRFYFFFDVPLPAGLAEDRDTLRADLSRYFAGWAPPVQKLIAALDPQTTNRIEIHDIEPFSRLVRGRVALLGDAGHSTTPDIGQGGCAAMEDAVVLGAVFRQTRDIAAALREYEAQRCDRVRDLVLKARKRCDITHGKDMQLTEAWYQELREETGERIINGMCDTILSGPLG,Km,purified protein,42 ± 8 µM
same,kcat,purified protein,42 ± 2 s⁻¹
